Tests used:
[1] = target: T1, amphyphisin SH3 (AMPH_HUMAN), P49418; assay: SPOT array
T1 chain: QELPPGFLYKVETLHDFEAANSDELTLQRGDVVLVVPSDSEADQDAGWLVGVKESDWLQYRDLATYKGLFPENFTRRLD

[2] = target: endophilin SH3 (SH3G2_HUMAN), Q99962; assay: SPOT array

In the case of QGIEFLRPLKTTTP [P42357 562-575], the normalised SPOT signal, Boehringer light units (BLU); mean over the file's lines of this peptide [1] is reported as 31.9 and the normalised SPOT signal, Boehringer light units (BLU); mean over the file's lines of this peptide [2] is reported as 83.1.

Binder ATSHFYRPPRSSHS [Q9ULC8 29-42] has a normalised SPOT signal, Boehringer light units (BLU); mean over the file's lines of this peptide [1] of 8300 and a normalised SPOT signal, Boehringer light units (BLU); mean over the file's lines of this peptide [2] of 218.

QNQSIRRPSRQLAP [O75116 1371-1384] gave a normalised SPOT signal, Boehringer light units (BLU); mean over the file's lines of this peptide [1] of 1460 and a normalised SPOT signal, Boehringer light units (BLU); mean over the file's lines of this peptide [2] of 665.

For QGSAPLRPFRSGEG [Q9H6J3 73-86], the normalised SPOT signal, Boehringer light units (BLU); mean over the file's lines of this peptide [1] was 7120 and the normalised SPOT signal, Boehringer light units (BLU); mean over the file's lines of this peptide [2] was 1840.

QPVNPPRPFKHSER [Q9Y381 268-281] was tested, and the normalised SPOT signal, Boehringer light units (BLU); mean over the file's lines of this peptide [1] was 275 and the normalised SPOT signal, Boehringer light units (BLU); mean over the file's lines of this peptide [2] was 1250.

Binder QPLGPRRPMRPVGH [Q07092 192-205] has a normalised SPOT signal, Boehringer light units (BLU); mean over the file's lines of this peptide [1] of 10200 and a normalised SPOT signal, Boehringer light units (BLU); mean over the file's lines of this peptide [2] of 2870.

In the case of QFPKLDRPTKQMRE [P78524 721-734], the normalised SPOT signal, Boehringer light units (BLU); mean over the file's lines of this peptide [1] is reported as 116 and the normalised SPOT signal, Boehringer light units (BLU); mean over the file's lines of this peptide [2] is reported as 133.

With QPLEPKRPPPPRPV [O43426 1101-1114] the normalised SPOT signal, Boehringer light units (BLU); mean over the file's lines of this peptide [1] was 28.6 and the normalised SPOT signal, Boehringer light units (BLU); mean over the file's lines of this peptide [2] was 124.

For QGASIRRPSSGNAS [Q13267 138-151], the normalised SPOT signal, Boehringer light units (BLU); mean over the file's lines of this peptide [1] was 33.6 and the normalised SPOT signal, Boehringer light units (BLU); mean over the file's lines of this peptide [2] was 124.

QPALLKRPQLELYV [Q9Y477 106-119] gave a normalised SPOT signal, Boehringer light units (BLU); mean over the file's lines of this peptide [1] of 28.2 and a normalised SPOT signal, Boehringer light units (BLU); mean over the file's lines of this peptide [2] of 52.6.

In the case of QHYTLGRPGRAPRR [O60275 1399-1412], the normalised SPOT signal, Boehringer light units (BLU); mean over the file's lines of this peptide [1] is reported as 565 and the normalised SPOT signal, Boehringer light units (BLU); mean over the file's lines of this peptide [2] is reported as 73.

For QLWDIRRPDRSERM [Q96S15 319-332], the normalised SPOT signal, Boehringer light units (BLU); mean over the file's lines of this peptide [1] was 2300 and the normalised SPOT signal, Boehringer light units (BLU); mean over the file's lines of this peptide [2] was 692.

QEALPMRPAREGEL [Q9Y6J9 86-99] gave a normalised SPOT signal, Boehringer light units (BLU); mean over the file's lines of this peptide [1] of 2910 and a normalised SPOT signal, Boehringer light units (BLU); mean over the file's lines of this peptide [2] of 70.9.

QKQDLRRPKIHGAV [Q9UII6 5-18] was tested, and the normalised SPOT signal, Boehringer light units (BLU); mean over the file's lines of this peptide [1] was 56.3 and the normalised SPOT signal, Boehringer light units (BLU); mean over the file's lines of this peptide [2] was 85.7.

Binder QLQAPDRPSRELLQ [Q9H6Q4 405-418] has a normalised SPOT signal, Boehringer light units (BLU); mean over the file's lines of this peptide [1] of 3320 and a normalised SPOT signal, Boehringer light units (BLU); mean over the file's lines of this peptide [2] of 377.

In the case of QLRPPPKPPLPAPD [Q9BZE0 329-343], the normalised SPOT signal, Boehringer light units (BLU); mean over the file's lines of this peptide [1] is reported as 825 and the normalised SPOT signal, Boehringer light units (BLU); mean over the file's lines of this peptide [2] is reported as 4110.

In the case of QPGSPRKPPMDEKS [P08263 197-211], the normalised SPOT signal, Boehringer light units (BLU); mean over the file's lines of this peptide [1] is reported as 59.8 and the normalised SPOT signal, Boehringer light units (BLU); mean over the file's lines of this peptide [2] is reported as 68.3.

With QILSPPRPPTSPSF [Q9BRZ8 226-240] the normalised SPOT signal, Boehringer light units (BLU); mean over the file's lines of this peptide [1] was 75.8 and the normalised SPOT signal, Boehringer light units (BLU); mean over the file's lines of this peptide [2] was 4830.

QNRPLIRPKKRLIV [P15976 237-250] showed a normalised SPOT signal, Boehringer light units (BLU); mean over the file's lines of this peptide [1] of 43.3 and a normalised SPOT signal, Boehringer light units (BLU); mean over the file's lines of this peptide [2] of 1510.

QPQGPPRPPQGGRP [P04280 312-326] showed a normalised SPOT signal, Boehringer light units (BLU); mean over the file's lines of this peptide [1] of 58.6 and a normalised SPOT signal, Boehringer light units (BLU); mean over the file's lines of this peptide [2] of 210.

With QPDGPARPPGMAPS [Q96KZ1 72-86] the normalised SPOT signal, Boehringer light units (BLU); mean over the file's lines of this peptide [1] was 63.5 and the normalised SPOT signal, Boehringer light units (BLU); mean over the file's lines of this peptide [2] was 39.7.

With QGGRPHRPPQGQPP [Q04118 294-308] the normalised SPOT signal, Boehringer light units (BLU); mean over the file's lines of this peptide [1] was 37.1 and the normalised SPOT signal, Boehringer light units (BLU); mean over the file's lines of this peptide [2] was 51.3.

With QGAGPSRPPTPGRN [O95398 328-342] the normalised SPOT signal, Boehringer light units (BLU); mean over the file's lines of this peptide [1] was 1010 and the normalised SPOT signal, Boehringer light units (BLU); mean over the file's lines of this peptide [2] was 2220.

QELLPGKPPKSRVL [Q8TC00 766-780] gave a normalised SPOT signal, Boehringer light units (BLU); mean over the file's lines of this peptide [1] of 49.9 and a normalised SPOT signal, Boehringer light units (BLU); mean over the file's lines of this peptide [2] of 156.

Binder QIRILKRPTSNGVV [Q9Y403 46-59] has a normalised SPOT signal, Boehringer light units (BLU); mean over the file's lines of this peptide [1] of 6.4 and a normalised SPOT signal, Boehringer light units (BLU); mean over the file's lines of this peptide [2] of 148.

Work on QKFSLRRPLQTAMI [Q96JF9 85-98] yielded a normalised SPOT signal, Boehringer light units (BLU); mean over the file's lines of this peptide [1] of 64.3 and a normalised SPOT signal, Boehringer light units (BLU); mean over the file's lines of this peptide [2] of 73.5.

For ATSRFYRPPRSSHS [Q9C0B5 150-163], the normalised SPOT signal, Boehringer light units (BLU); mean over the file's lines of this peptide [1] was 5620 and the normalised SPOT signal, Boehringer light units (BLU); mean over the file's lines of this peptide [2] was 400.

Work on QGPAPRRPTTDQIS [O43566 535-548] yielded a normalised SPOT signal, Boehringer light units (BLU); mean over the file's lines of this peptide [1] of 36.6 and a normalised SPOT signal, Boehringer light units (BLU); mean over the file's lines of this peptide [2] of 6570.

QGPAPRRPWERGDG [P16066 284-297] was tested, and the normalised SPOT signal, Boehringer light units (BLU); mean over the file's lines of this peptide [1] was 35.7 and the normalised SPOT signal, Boehringer light units (BLU); mean over the file's lines of this peptide [2] was 0.

Work on QPLGPAKPPAQQTG [Q9Y6V0 327-341] yielded a normalised SPOT signal, Boehringer light units (BLU); mean over the file's lines of this peptide [1] of 52.7 and a normalised SPOT signal, Boehringer light units (BLU); mean over the file's lines of this peptide [2] of 63.4.

QLFTPNRPKKREIY [Q9BWY5 227-240] gave a normalised SPOT signal, Boehringer light units (BLU); mean over the file's lines of this peptide [1] of 165 and a normalised SPOT signal, Boehringer light units (BLU); mean over the file's lines of this peptide [2] of 698.

In the case of QKTRPIKPPPDSQE [Q9H5W5 105-119], the normalised SPOT signal, Boehringer light units (BLU); mean over the file's lines of this peptide [1] is reported as 42.1 and the normalised SPOT signal, Boehringer light units (BLU); mean over the file's lines of this peptide [2] is reported as 36.3.

For ASSSPKRPSVERSN [O75764 109-122], the normalised SPOT signal, Boehringer light units (BLU); mean over the file's lines of this peptide [1] was 12.2 and the normalised SPOT signal, Boehringer light units (BLU); mean over the file's lines of this peptide [2] was 190.

QLVILRRPERPMED [Q96NX7 585-598] was tested, and the normalised SPOT signal, Boehringer light units (BLU); mean over the file's lines of this peptide [1] was 31.8 and the normalised SPOT signal, Boehringer light units (BLU); mean over the file's lines of this peptide [2] was 16.7.

With ATAFLQRPSRAGSL [Q9C0A3 966-979] the normalised SPOT signal, Boehringer light units (BLU); mean over the file's lines of this peptide [1] was 15700 and the normalised SPOT signal, Boehringer light units (BLU); mean over the file's lines of this peptide [2] was 298.

QLSSPIRPPKYYTY [O43163 368-382] was tested, and the normalised SPOT signal, Boehringer light units (BLU); mean over the file's lines of this peptide [1] was 227 and the normalised SPOT signal, Boehringer light units (BLU); mean over the file's lines of this peptide [2] was 2940.

Binder QKDVIRRPTFVPQW [Q9P0Y7 137-150] has a normalised SPOT signal, Boehringer light units (BLU); mean over the file's lines of this peptide [1] of 22.8 and a normalised SPOT signal, Boehringer light units (BLU); mean over the file's lines of this peptide [2] of 91.5.

With QPQSLRRPLWLSHS [Q9H8J7 161-174] the normalised SPOT signal, Boehringer light units (BLU); mean over the file's lines of this peptide [1] was 66.8 and the normalised SPOT signal, Boehringer light units (BLU); mean over the file's lines of this peptide [2] was 1380.

Binder QQFRLRRPSGITWP [Q96RY6 139-152] has a normalised SPOT signal, Boehringer light units (BLU); mean over the file's lines of this peptide [1] of 61.5 and a normalised SPOT signal, Boehringer light units (BLU); mean over the file's lines of this peptide [2] of 116.

QEDSPRKPPNFPVP [Q8TEE1 827-841] gave a normalised SPOT signal, Boehringer light units (BLU); mean over the file's lines of this peptide [1] of 97.6 and a normalised SPOT signal, Boehringer light units (BLU); mean over the file's lines of this peptide [2] of 142.

QPGSPRKPPADAKA [Q16772 198-212] was tested, and the normalised SPOT signal, Boehringer light units (BLU); mean over the file's lines of this peptide [1] was 36.6 and the normalised SPOT signal, Boehringer light units (BLU); mean over the file's lines of this peptide [2] was 46.1.

QPQGPPRPPQGDKP [Q15215 74-88] gave a normalised SPOT signal, Boehringer light units (BLU); mean over the file's lines of this peptide [1] of 84.1 and a normalised SPOT signal, Boehringer light units (BLU); mean over the file's lines of this peptide [2] of 94.4.

— publication PMC314469, “Protein Interaction Networks by Proteome Peptide Scanning” (PLoS Biology, 2004)
